Assay results published in paper doi:10.1101/489906 (bioRxiv, 2018).

Columns and labels:
NSW-2012 GII.4 P domain = target: T1, NSW-2012 GII.4 P domain (Norovirus …, strain); test: ITC
T1 chain: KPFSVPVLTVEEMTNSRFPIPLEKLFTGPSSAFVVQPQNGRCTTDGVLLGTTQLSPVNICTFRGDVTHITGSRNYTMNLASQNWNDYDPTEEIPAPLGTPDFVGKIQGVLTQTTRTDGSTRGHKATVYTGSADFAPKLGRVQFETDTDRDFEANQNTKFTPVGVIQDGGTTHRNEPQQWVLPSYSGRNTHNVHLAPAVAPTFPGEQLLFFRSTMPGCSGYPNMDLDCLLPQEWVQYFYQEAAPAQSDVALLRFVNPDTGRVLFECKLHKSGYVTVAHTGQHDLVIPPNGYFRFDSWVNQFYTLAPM

CHDC-1974 GII.4 VLPs = CHDC-1974 GII.4 VLPs (Norovirus Hu/GII.4/CHDC2094/1974/US …, UniProt D0QJ68, strain); test: ELISA
Saga-2006 GII.4 VLPs = Saga-2006 GII.4 VLPs (Norovirus Hu/GII.4/Saga4/2006/JP …, UniProt B5BTR7, strain); test: ELISA

B1: 10E9 MAb (IgG) (antibody, V domains shown)
VH: QVQLQQSGAELMKPGASVKISCTATGYTFITYWIQWVKQRPGHGLEWIGETLPGSGSTNYNEKFKGKATFTADTSSNTAYMQLSSLTSEDSAIYYCARIGRSNDYWGQGTTLTVSS
VL: QIVLTQSPTIMSASPGEKVTMTCSASSSVDYMHWYQQKSGTSPKRWIYDTYKLASGVPARFSGSGSGTSYSLTINSMEAEDAATYYCQQWSSNPLTFGAGTKLELK
In the case of B1, the Kd (NSW-2012 GII.4 P domain) is reported as 59 nM, the dH (NSW-2012 GII.4 P domain) is reported as -4.3 ± 0.011 kcal/mol and the “stoichiometry N” value (NSW-2012 GII.4 P domain) is reported as 0.98. B1: no binding (CHDC-1974 GII.4 VLPs); binds (Saga-2006 GII.4 VLPs).
